# Biological target: Human ACLY, His-tagged, bacterially expressed and purified recombinant full length protein (UniProt P53396)
# Chain of UniProt P53396 (P53396 whole entry): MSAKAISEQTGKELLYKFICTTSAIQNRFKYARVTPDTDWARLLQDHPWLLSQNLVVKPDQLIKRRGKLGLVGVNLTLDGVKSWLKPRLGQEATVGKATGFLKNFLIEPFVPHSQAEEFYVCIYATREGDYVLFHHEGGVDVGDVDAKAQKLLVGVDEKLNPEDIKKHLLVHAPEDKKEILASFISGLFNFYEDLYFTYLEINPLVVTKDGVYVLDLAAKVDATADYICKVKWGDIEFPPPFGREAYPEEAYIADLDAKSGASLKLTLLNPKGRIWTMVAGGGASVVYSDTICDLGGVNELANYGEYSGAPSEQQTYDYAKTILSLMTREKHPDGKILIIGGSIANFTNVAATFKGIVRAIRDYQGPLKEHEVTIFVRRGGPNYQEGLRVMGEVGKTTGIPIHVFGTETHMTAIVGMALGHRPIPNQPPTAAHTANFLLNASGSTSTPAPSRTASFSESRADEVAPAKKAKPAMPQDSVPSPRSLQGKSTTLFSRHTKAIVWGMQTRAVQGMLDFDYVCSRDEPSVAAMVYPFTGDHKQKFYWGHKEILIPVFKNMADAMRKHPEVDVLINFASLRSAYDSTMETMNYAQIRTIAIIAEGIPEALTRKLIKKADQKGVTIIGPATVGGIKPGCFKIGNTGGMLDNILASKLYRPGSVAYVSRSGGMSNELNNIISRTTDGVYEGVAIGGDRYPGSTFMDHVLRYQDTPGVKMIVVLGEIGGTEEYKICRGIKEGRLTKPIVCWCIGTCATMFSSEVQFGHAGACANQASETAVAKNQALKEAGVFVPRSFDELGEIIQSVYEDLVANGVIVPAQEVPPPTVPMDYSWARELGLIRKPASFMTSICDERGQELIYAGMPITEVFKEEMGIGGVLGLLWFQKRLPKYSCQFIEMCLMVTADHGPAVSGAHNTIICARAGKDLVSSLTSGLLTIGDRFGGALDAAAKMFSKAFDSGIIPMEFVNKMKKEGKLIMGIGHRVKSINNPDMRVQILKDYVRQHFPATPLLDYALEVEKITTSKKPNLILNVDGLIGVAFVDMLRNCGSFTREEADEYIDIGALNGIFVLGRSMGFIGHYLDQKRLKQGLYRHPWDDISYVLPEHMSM
substance,measurement,value
Active recombinant Src kinase,ACLY tyrosine residues phosphorylated (phosphoproteomics),"The three ACLY tyrosine residues, Y682, Y252, Y227, were common for Lyn and Src"

# Source: US20220218659
